Experimental findings from paper PMC4072462 are described below.

The data set concerns the target FabR_vc (N-terminal His6) (Vibrio cholerae, UniProt Q9KVJ2 1-213). Put plainly: EMSA.

B1: fabBec B+D (dsDNA)
DNA 1: TCTATTAAATGGCTGATCGGACTTGTTCGGCGTACAAGTGTACGCTATTGTGCATTC
DNA 2: GAATGCACAATAGCGTACACTTGTACGCCGAACAAGTCCGATCAGCCATTTAATAGA
On to B1, for which the binding result is “binds”.

B2: fabAec B+D (dsDNA)
DNA 1: TTTATTCCGAACTGATCGGACTTGTTCAGCGTACACGTGTTAGCTATCCTGCGTGC
DNA 2: GCACGCAGGATAGCTAACACGTGTACGCTGAACAAGTCCGATCAGTTCGGAATAAA
As to B2, the binding result was “binds”.
